Consider 54 substances from US20250011363A1, “OPTIMIZED SHORTENED PEPTIDE THAT BINDS TO ACETYLCHOLINE RECEPTOR, AND USE THEREOF” (SKINMED CO., LTD., priority 2021, published 2025).

For this assay, the target named is acetylcholine receptor (Homo sapiens, UniProt P02708). Put plainly: SPR binding affinity (RU) of optimized 5mer/6mer/7mer peptides, Examples 6-7. Particulars: SPR, peptides tested at 10 μM; 6mer-1 Top sequence (top combinations). An outline of the steps:
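Synthetic 5mer and 6mer peptides, built from frequent or infrequent amino-acid combinations, were tested at 10 μM for binding to the human acetylcholine receptor by surface plasmon resonance. Binding is reported in response units (RU).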

acetylcholine receptor, sequence (P02708 21-457): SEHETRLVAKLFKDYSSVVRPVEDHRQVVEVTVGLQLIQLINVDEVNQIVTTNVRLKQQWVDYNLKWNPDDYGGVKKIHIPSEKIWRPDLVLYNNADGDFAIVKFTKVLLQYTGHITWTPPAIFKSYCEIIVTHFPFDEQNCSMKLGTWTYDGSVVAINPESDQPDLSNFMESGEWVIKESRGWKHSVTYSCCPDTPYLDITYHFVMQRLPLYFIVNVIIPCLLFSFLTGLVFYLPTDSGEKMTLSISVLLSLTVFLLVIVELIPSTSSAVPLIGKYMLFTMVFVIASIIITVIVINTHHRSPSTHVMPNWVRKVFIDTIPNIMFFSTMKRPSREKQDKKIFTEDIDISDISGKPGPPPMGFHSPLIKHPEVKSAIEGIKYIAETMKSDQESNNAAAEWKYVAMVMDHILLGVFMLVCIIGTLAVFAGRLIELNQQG

As to 6mer-1-140 (KRQVQR), the Binding affinity was determined as 148 Ru.

Turning to 6mer-1-141 (RKLYQK), the Binding affinity worked out at 141 Ru. To 6mer-1-142 (KKVYYK) belongs 123 Ru; to 6mer-1-143 (KRGVLR), 145 Ru; to 6mer-1-144 (RKRYTR), 148 Ru. As for 6mer-1-145 (RKVFQR), the Binding affinity was found to be 141 Ru.

Take 6mer-1-146 (KRGRRR): the Binding affinity came to 139 Ru. Regarding 6mer-1-147 (KKQIQR), the Binding affinity was determined as 125 Ru. To 6mer-1-148 (RKLRCR) belongs 146 Ru; to 6mer-1-149 (RRWVCK), 131 Ru. Then 6mer-1-150 (RKRQCR), with 142 Ru.

As for 6mer-1-151 (KRGVRR), the Binding affinity turned out to be 145 Ru.

Regarding 6mer-1-152 (KRVIRR), the Binding affinity came to 154 Ru. Then 6mer-1-153 (KKWQQR), with 146 Ru. To 6mer-1-154 (KKLYSR) belongs 153 Ru; to 6mer-1-155 (RRVRSR), 127 Ru; to 6mer-1-156 (RRSVTK), 154 Ru. Take 6mer-1-157 (KKSLLR): the Binding affinity came out at 123 Ru.

As to 6mer-1-158 (RRLIYR), the Binding affinity worked out at 131 Ru.

With 6mer-1-159 (KRLRRK), the Binding affinity is listed as 139 Ru. To 6mer-1-160 (RRVIQR) belongs 149 Ru; to 6mer-1-161 (KRRYCK), 139 Ru. 6mer-1-162 (KKSLSK): the Binding affinity is listed as 142 Ru. To 6mer-1-163 (KRLQTK) belongs 147 Ru; to 6mer-1-164 (KRGQYK), 145 Ru.

As to 6mer-1-165 (KKWFTK), the Binding affinity amounted to 148 Ru.

6mer-1-166 (RRWYSK): the Binding affinity amounted to 148 Ru.

Turning to 6mer-1-167 (RRRYQR), the Binding affinity amounted to 122 Ru. As to 6mer-1-168 (KRWFCK), the Binding affinity turned out to be 131 Ru. To 6mer-1-169 (RRQQSK) belongs 153 Ru; to 6mer-1-170 (RKSFYR), 148 Ru.

As to 6mer-1-171 (RKQFQK), the Binding affinity is reported as 123 Ru. To 6mer-1-172 (RRLIRK) belongs 153 Ru. To 6mer-1-173 (RKQYYR) belongs 123 Ru; to 6mer-1-174 (KKGVCR), 154 Ru; to 6mer-1-175 (RRRIQK), 137 Ru.

As for 6mer-1-176 (KKVYCK), the Binding affinity is given as 121 Ru. To 6mer-1-177 (KRGYRR) belongs 121 Ru; to 6mer-1-178 (RKRYQK), 139 Ru. To 6mer-1-179 (KRSQYR) belongs 148 Ru; to 6mer-1-180 (RKLVRK), 146 Ru.

6mer-1-181 (KKGVLR): the Binding affinity is 148 Ru. For 6mer-1-182 (KRGICK), the Binding affinity worked out at 147 Ru.

Regarding 6mer-1-183 (KKGQTR), the Binding affinity came to 121 Ru.

Take 6mer-1-184 (KRQICR): the Binding affinity is recorded as 139 Ru. For the substance 6mer-1-185 (KRQLRK), the Binding affinity is on record as 153 Ru. Then 6mer-1-186 (RRRVYK), with 147 Ru; and 6mer-1-187 (RKLFYK), with 139 Ru. Then 6mer-1-188 (RKSLQK), with 122 Ru; and 6mer-1-189 (KKSYSK), with 137 Ru; and 6mer-1-190 (RKLYYR), with 153 Ru.

As for 6mer-1-191 (KKQILK), the Binding affinity was found to be 139 Ru.

For the substance 6mer-1-192 (KRQYQR), the Binding affinity was 127 Ru. With 6mer-1-193 (KRVQLK), the Binding affinity is 149 Ru.
